Consider 3 molecules from publication PMC12049551, “Labelizer: systematic selection of protein residues for covalent fluorophore labeling” (Nature Communications, 2025).

Numbering of substitutions follows the chain as printed. Names may count otherwise. Like-named read-outs stand apart in the source and are kept apart here.

Test [1] can be described thus: Isothermal titration calorimetry (ITC) of PBP variants with inorganic phosphate. The format is binding, E. coli. As to conditions: 25 °C, unlabeled protein, mean ± SD from n = 2 protein preparations. On the procedure: Protein from a diluted solution was concentrated to ~ 30 µM using a Viva Spin 6 concentrator with a 10 kDa MWCO. The filtrate was used to prepare the phosphate solution at 450 µM. The reaction cell was filled with the protein solution and titrated in 19 steps of 2 µl each of phosphate solution in 160 s intervals. A baseline control was obtained from measurements made with protein-free filtrate in the reaction cell, and this baseline was subtracted from the experimental thermograms. Data were fitted to a single binding site model using the Setup MicroCal PEAQ-ITC Analysis Software provided by the manufacturer.

Details of test [2]: method as in PMID 26199994. The note with it: cited from earlier work.

B1: PBP (S3C-I76G-P86C): double-cysteine variant of E. coli phosphate binding protein PBP with additional I76G mutation (protein, UniProt P0AG82 26-346, looked up, variant S3C I76G P86C)
Phosphate-binding protein PstS: EACLTGAGATFPAPVYAKWADTYQKETGNKVNYQGIGSSGGVKQIIANTVDFGASDAPLSDEKLAQEGLFQFPTVGGGVVLAVNICGLKSGELVLDGKTLGDIYLGKIKKWDDEAIAKLNPGLKLPSQNIAVVRRADGSGTSFVFTSYLAKVNEEWKNNVGTGSTVKWPIGLGGKGNDGIAAFVQRLPGAIGYVEYAYAKQNNLAYTKLISADGKPVSPTEENFANAAKGADWSKTFAQDLTNQKGEDAWPITSTTFILIHKDQKKPEQGTEVLKFFDWAYKTGAKQANDLDYASLPDSVVEQVRAAWKTNIKDSSGKPLY
On to B1, for which, in test [1], binding was characterised by a dissociation constant (Kd) of 10 ± 5 µM.

B2: wild-type: wild-type E. coli phosphate binding protein PBP (phoS gene) (protein, UniProt P0AG82 26-346, looked up)
Phosphate-binding protein PstS: B1 Phosphate-binding protein PstS with C3S, G76I, C86P
For B2, the Kd – broadly, the constant that tells how readily two partners part at equilibrium – in test [2] (wild-type affinity for inorganic phosphate) is 0.07 µM.

B3: PBP (I76G): cysteine-less PBP variant with only the I76G mutation (protein, UniProt P0AG82 26-346, looked up, variant I76G)
Phosphate-binding protein PstS: B1 Phosphate-binding protein PstS with C3S, C86P
Regarding B3, the “reduction of affinity for inorganic phosphate compared to wild-type” value in test [2] (I76G mutation) is reported as about 200 fold. This molecule also yielded a dissociation constant (Kd) in test [1] of 19 ± 6 µM.
